The data set concerns the molecule itself. In words: SEC-MALS; TSK-Gel G3000 SWXL column, 150 mM NaCl, 20 mM Tris-HCl (pH 8.0), 0.5 mL/min, Mini-DAWN light scattering detector. For orientation: Size exclusion chromatography separates by hydrodynamic size, large species first.

The stoichiometry N is the number of molecules, sites or subunits per partner or assembly.

B1: Pseudomonas aeruginosa isocitrate dehydrogenase ICD (PA2623) (enzyme, Pseudomonas aeruginosa strain PAO1, UniProt Q02NB5 1-418, looked up)
chain: MGYQKIQVPATGDKITVNADMSLSVPKNPIIPFIEGDGIGVDISPVMIKVVDAAVEKAYKGERKIAWMEVYAGEKATQVYDQDTWLPQETLDAVRDYVVSIKGPLTTPVGGGIRSLNVALRQQLDLYVCQRPVRWFEGVPSPVKKPGDVDMVIFRENSEDIYAGVEWKAGSPEAEKVIKFLTEEMGVKKIRFTENCGIGIKPVSQEGTKRLVRKALQYAVDNDRSSVTLVHKGNIMKFTEGAFKDWGYEVARDEFGAELLDGGPWMQFKNPKTGKNVVVKDVIADAMLQQILLRPAEYDVIATLNLNGDYLSDALAAEVGGIGIAPGANLSDSVAMFEATHGTAPKYAGQDKVNPGSLILSAEMMLRHMGWTEAADLIIKGTNGAIAAKTVTYDFERLMDGATLLSCSEFGDAMIAKM
notes: isocitrate dehydrogenase ICD, ORF PA2623 of Pseudomonas aeruginosa strain PAO1, calculated molecular mass 45 kDa; The ORF was cloned into a pMAL-c2X derivative with a hexa-histidine tag on the N-terminus of MBP; The His6-MBP tag was cut off with Factor Xa; also called P. aeruginosa ICD; source: E. coli DH5α, purified (amylose resin, Factor Xa cleavage, Ni-NTA flow through); not shown: His6, …
As to B1, the “stoichiometry N” value was determined as 2.

B2: Pseudomonas aeruginosa isocitrate lyase (ICL, PA2634) (enzyme, Pseudomonas aeruginosa strain PAO1, UniProt Q9I0K4 1-531, looked up)
chain: MSAYQNEIKAVAALKEKNGSSWSAINPEYAARMRIQNRFKTGLDIAKYTAAIMRKDMAEYDADSSVYTQSLGCWHGFIGQQKLISIKKHLKTTNKRYLYLSGWMVAALRSDFGPLPDQSMHEKTAVSGLIEELYTFLRQADARELDLLFTGLDAARAAGDKAKEAELLAQIDNFETHVVPIIADIDAGFGNAEATYLLAKKMIEAGACCIQIENQVSDEKQCGHQDGKVTVPHIDFLAKINAVRYAFLELGVDDGVIVARTDSLGAGLTKQIAVTNEPGDLGDLYNSFLDCEEISESELGNGDVVIKREGKLLRPKRLASNLFQFRKGTGEDRCVLDCITSLQNGADLLWIETEKPHVGQIKAMVDRIREVIPNAKLVYNNSPSFNWTLNFRQQVFDAFVAEGKDVSAYDRNKLMSVEYDDTELAKVADEKIRTFQRDGSAHAGIFHHLITLPTYHTAALSTDNLAKGYFADEGMLAYVKGVQRQELRQGIACVKHQNMAGSDIGDNHKEYFAGEAALKASGKDNTMNQFH
notes: isocitrate lyase (ICL), ORF PA2634 of Pseudomonas aeruginosa strain PAO1, 531 amino acids; The ORF was cloned into a pMAL-c2X derivative with a hexa-histidine tag on the N-terminus of MBP; The His6-MBP tag was cut off with Factor Xa; Crystallised with Ca2+ and glyoxylate; also called P. aeruginosa ICL; source: E. coli DH5α, purified (amylose resin, Factor Xa cleavage, Ni-NTA flow through); not …
As to B2, the “stoichiometry N” value stood at 4.

Values taken from publication doi:10.1101/318345, “Three enzymes and one substrate; regulation of flux through the glyoxylate shunt in the opportunistic pathogen, Pseudomonas aeruginosa” (bioRxiv, 2018).
